Source: PMC5025888 (Scientific Reports, 2016)

Target: NS1 of rgPR8-NS1-WT virus (Influenza A virus A/Puerto …, UniProt P03496)
Test: Western blot
Details: one partner purified

Sequence of NS1 of rgPR8-NS1-WT virus (P03496 whole entry): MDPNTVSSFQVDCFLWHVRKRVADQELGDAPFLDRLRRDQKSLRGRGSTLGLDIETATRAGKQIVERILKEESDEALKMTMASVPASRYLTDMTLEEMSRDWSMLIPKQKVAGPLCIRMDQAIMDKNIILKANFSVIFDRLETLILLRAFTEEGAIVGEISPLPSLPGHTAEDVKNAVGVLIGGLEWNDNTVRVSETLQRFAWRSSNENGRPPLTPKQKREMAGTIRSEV

B1: monoclonal antibody 2H6 (antibody, V domains shown)
VH: DVKLVESGGGLVNLGGSLKLSCAASGFTFSRYYMSWVRQTPEKRLELVAAINHNSGRTYYSDTVKGRFTISRDNAKNTLYLQMSSLKSEDTALYYCTRHPLIYHGNYLDYWGQGTTLTVSS
VL: DIVLTQSPASLAVSLGQRATISCKASQSVDYDGDSYVTWYQQKPGQPPKLLIYVASNLESGIPARFSGSGSGTDFTLNIHPVEEEDAATYYCQQSNEDPWTFGGGTKLEIK
- binding result: binds
